Paper PMC2847530 (Molecular Biology of the Cell, 2010)

Target: T1, recombinant hexahistidine-tagged ScSec4 (S. cerevisiae, UniProt P07560 1-215)
T1 sequence: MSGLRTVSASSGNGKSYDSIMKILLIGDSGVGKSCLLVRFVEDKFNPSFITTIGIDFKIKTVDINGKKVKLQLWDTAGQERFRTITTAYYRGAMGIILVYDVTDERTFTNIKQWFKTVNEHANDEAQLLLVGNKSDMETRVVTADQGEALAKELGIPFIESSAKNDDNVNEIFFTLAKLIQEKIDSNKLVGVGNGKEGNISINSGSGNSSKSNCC
Test: […]) in EDTA binding buffer

B1: GST-ScSec2^1-160 (domain or fragment)
chain: MDASEEAKRVSIQVTSLSTQLIESVDKQSHLEEQLNKSLKTIASQKAAIENYNQLKEDYNTLKRELSDRDDEVKRLREDIAKENELRTKAEEEADKLNKEVEDLTASLFDEANNMVADARKEKYAIEILNKRLTEQLREKDTLLDTLTLQLKNLKKVMHS
- binding result: binds
